The text below walks through data of article PMC10520331, “Novel exported fusion enzymes with chorismate mutase and cyclohexadienyl dehydratase activity: Shikimate pathway enzymes teamed up in no man's land” (The Journal of Biological Chemistry, 2023).

Data set [1] relates to T1, O=C(O)C(=O)CC1(C(=O)O)C=CC(O)C=C1.
T1 construct: fusion enzyme, CM N-terminal to CDT; without signal peptide, C-terminal His-tag; E. coli KA29; monomer
As to the kind of experiment: discontinuous CDT assay, phenylpyruvate enolate A320. The following applies: PBS pH 7.5, 30 °C, CDT site. In kind it is biochemical, Steroidobacter cummioxidans. An excerpt: discontinuous CDT assay, phenylpyruvate enolate A320 on ∗ScCMCDT

Data set [2] relates to T2, C=C(O[C@@H]1C=C(C(=O)O)C=C[C@H]1O)C(=O)O.
T2 construct: fusion enzyme, CM N-terminal to CDT; without signal peptide, C-terminal His-tag; E. coli KA29; monomer
As to the kind of experiment: discontinuous CM assay, phenylpyruvate enolate A320. In kind it is biochemical, Steroidobacter cummioxidans. The following applies: PBS pH 7.5, 30 °C, CM site. From the text: discontinuous CM assay, phenylpyruvate enolate A320 on ∗ScCMCDT

For data set [3], the system named is C=C(O[C@@H]1C=C(C(=O)O)C=C[C@H]1O)C(=O)O. Put plainly: purified protein. The following applies: PBS pH 7.5, 30 °C, CM site, lowest substrate 2.5 μM (Km near or below this is less reliable).
For data set [4], the system named is O=C(O)C(=O)CC1(C(=O)O)C=CC(O)C=C1. As to the kind of experiment: purified protein. The note with it: PBS pH 7.5, 30 °C, CDT site.
Substrate in data set [5]: C=C(O[C@@H]1C=C(C(=O)O)C=C[C@H]1O)C(=O)O
Put plainly: discontinuous CM assay, phenylpyruvate enolate A320. It is filed as biochemical, Shewanella baltica. The following applies: PBS pH 7.5, 30 °C, CM site, lowest substrate 2.5 μM (Km near or below this is less reliable). From the text: discontinuous CM assay, phenylpyruvate enolate A320 on ∗SbCMCDT

Substrate in data set [6]: O=C(O)C(=O)CC1(C(=O)O)C=CC(O)C=C1
Put plainly: discontinuous CDT assay, phenylpyruvate enolate A320. The following applies: PBS pH 7.5, 30 °C, CDT site, lowest substrate 2.5 μM (Km near or below this is less reliable). In kind it is biochemical, Shewanella baltica. An excerpt:
discontinuous CDT assay, phenylpyruvate enolate A320 on ∗SbCMCDT

Substrate in data set [7]: C=C(O[C@@H]1C=C(C(=O)O)C=C[C@H]1O)C(=O)O
Put plainly: discontinuous CM assay, phenylpyruvate enolate A320. In kind it is biochemical, Janthinobacterium sp. HH01. The following applies: PBS pH 7.5, 30 °C, lowest substrate 2.5 μM (Km near or below this is less reliable). From the text:
discontinuous CM assay, phenylpyruvate enolate […] on ∗JbCM

Substrate in data set [8]: C=C(O[C@@H]1C=C(C(=O)O)C=C[C@H]1O)C(=O)O
The data set is described as above. It is filed as biochemical, Janthinobacterium sp. HH01. The note with it: PBS pH 7.5, 30 °C, CM site, lowest substrate 2.5 μM (Km near or below this is less reliable). From the text: discontinuous CM assay, phenylpyruvate enolate A320 on ∗JbCDTCM

Substrate in data set [9]: O=C(O)C(=O)CC1(C(=O)O)C=CC(O)C=C1
Put plainly: discontinuous CDT assay, phenylpyruvate enolate A320. In kind it is biochemical, Janthinobacterium sp. HH01. The following applies: PBS pH 7.5, 30 °C, CDT site. From the text: discontinuous CDT assay, phenylpyruvate enolate A320 on ∗JbCDTCM

[10] abbreviates: CM-site knock-out, lowest substrate 2.5 μM (Km near or below this is less reliable).

The Km is the substrate concentration at which the rate is half of its maximum. What is called kcat is the maximal rate divided by the concentration of active sites. Usually kcat/Km stands for the turnover number divided by the Michaelis constant. ∗ScCMCDT (Steroidobacter cummioxidans): in data set [1], the Km came out at 16.6 ± 2.5 µM, the turnover number (kcat) was 32.0 ± 8.4 s⁻¹ and the kcat/Km turned out to be 1.9e+06 ± 200000 M⁻¹ s⁻¹. Also, in data set [2], the Michaelis-Menten constant (Km) amounted to 6.3 ± 3.9 µM and the kcat is 6.8 ± 0.7 s⁻¹.

As to ∗DsCDTCM (Duganella sacchari), in data set [3], the Km turned out to be 3.0 ± 0.8 µM, the kcat stood at 19.5 ± 0.2 s⁻¹ and the kcat/Km is 6.8e+06 ± 1.9e+06 M⁻¹ s⁻¹. In data set [4], the Km amounted to 14.6 ± 3.1 µM, the kcat came out at 24.9 ± 2.0 s⁻¹ and the kcat/Km was determined as 1.8e+06 ± 500000 M⁻¹ s⁻¹.

For ∗MpCDTCM (Massilia phosphatilytica), in [3], the Km turned out to be 3.2 ± 0.0 µM, the catalytic constant (kcat) was determined as 26.3 ± 1.4 s⁻¹ and the kcat/Km is 8.3e+06 ± 400000 M⁻¹ s⁻¹. Moreover, in data set [4], the Km was 18.1 ± 1.7 µM, the kcat was 41.8 ± 3.5 s⁻¹ and the kcat/Km turned out to be 2.3e+06 M⁻¹ s⁻¹.

B1: ∗SbCMCDT (Shewanella baltica OS155) (protein)
chain: DTDENAELYANMNTRLSYMQQVALYKWQHQLPIEDLAREKIVLAQSVTAAESLGITSVAITDFFQVQIELAKKIQRQYHQQWREHGLPQTLQTKQNTKLSLDKIRPALTTLGQTIIEQIAEHQDQHDFSVFNLAIDTPLVSIEDKAVLFRSLSLIKPKVYLSTLDKIIAEKILYVGTTGDYEPFSYFEAGQIKGIDIDLANRLADSLGAQAVFLPTSWSNLITDLSSERFDIMMSGISKQLFRQRVGLQSDIYLEDGKTPISLCAKKERYDSLAKIDKPDTRMIVNKGGTNQRFVDANIKQAKITVHSSNVTIFQELIANRADVMITDRVEVQLQTKKHTELCSTMPNNLNYSAKAFLMGRDPIWKEYVDAWLELSIKDGSVSNIFNHYI
notes: fusion enzyme, CM N-terminal to CDT; without signal peptide, C-terminal His-tag; E. coli KA29
B1: in data set [5], the Km stood at 3.2 ± 2.7 µM and the kcat was determined as 6.8 ± 0.1 s⁻¹. For the same molecule, in [6], the Michaelis constant (Km) is 3.6 ± 1.1 µM, the kcat came out at 12.2 ± 2.8 s⁻¹ and the kcat/Km was 3.5e+06 ± 300000 M⁻¹ s⁻¹.

B2: ∗JbCM (Janthinobacterium sp. HH01) (protein)
chain: GLEPLRLAIDQRLLLAQAVARAKWNVQAPIEDLGREAQVIQAAVKEGAALGLPKVWIETVFRAQIEASKTVQRELFAQWSAQQAGKFDDAPDLAKTIRPELDRLTTQLLRSMASNQTVLNDEARKADVARAMRALEARALSPQAATQALAPFF
notes: split-off CM domain of JbCDTCM, starts at Gly238; C-terminal His-tag; E. coli KA29
Regarding B2, in [7], the Km stood at 2.2 ± 0.3 µM, the kcat worked out at 16.4 ± 1.5 s⁻¹ and the kcat/Km is 7.6e+06 ± 1.7e+06 M⁻¹ s⁻¹.

B3: ∗JbCDTCM (Janthinobacterium sp. HH01) (protein)
chain: DHRLDDITARGVLRVGTTGDYKPFSSRAGNDFVGLDIELAADLARTLGVPVQIVPTSWPTLMKDFGDGKFDIALGGVSITPERQKQGLFSVSYLRDGKTPITRCENSARFQTLAQIDQPGVRLVVNPGGTNERFARSQAPNAQLTVYPDNVTIFDQIVTGAADLMITDAIETRLQQRLRPQLCAVHPDTPFDFAEKAILLPRDVAFKAVVDKWLQQRIASGAVQRSVDRWLDFPWGLEPLRLAIDQRLLLAQAVARAKWNVQAPIEDLGREAQVIQAAVKEGAALGLPKVWIETVFRAQIEASKTVQRELFAQWSAQQAGKFDDAPDLAKTIRPELDRLTTQLLRSMASNQTVLNDEARKADVARAMRALEARALSPQAATQALAPFF
notes: fusion enzyme, CDT N-terminal to CM; without signal peptide, C-terminal His-tag; E. coli KA29; monomer
Regarding B3, in data set [8], the Km was determined as 3.0 ± 0.1 µM, the kcat was determined as 17.1 ± 0.9 s⁻¹ and the kcat/Km is 5.7e+06 ± 100000 M⁻¹ s⁻¹. Moreover, in [9], the Km turned out to be 7.3 ± 2.0 µM, the kcat stood at 13.0 ± 1.3 s⁻¹ and the kcat/Km was 1.8e+06 ± 300000 M⁻¹ s⁻¹.

B4: ∗JbCDTCM (Janthinobacterium sp. HH01; K287A) (protein)
chain: DHRLDDITARGVLRVGTTGDYKPFSSRAGNDFVGLDIELAADLARTLGVPVQIVPTSWPTLMKDFGDGKFDIALGGVSITPERQKQGLFSVSYLRDGKTPITRCENSARFQTLAQIDQPGVRLVVNPGGTNERFARSQAPNAQLTVYPDNVTIFDQIVTGAADLMITDAIETRLQQRLRPQLCAVHPDTPFDFAEKAILLPRDVAFKAVVDKWLQQRIASGAVQRSVDRWLDFPWGLEPLRLAIDQRLLLAQAVARAAWNVQAPIEDLGREAQVIQAAVKEGAALGLPKVWIETVFRAQIEASKTVQRELFAQWSAQQAGKFDDAPDLAKTIRPELDRLTTQLLRSMASNQTVLNDEARKADVARAMRALEARALSPQAATQALAPFF
notes: as for B3
For the molecule B4, in [9] (setting [10]), the Km came out at 4.2 ± 0.4 µM, the kcat is 13.9 ± 0.3 s⁻¹ and the kcat/Km is 3.3e+06 ± 200000 M⁻¹ s⁻¹.

B5: ∗JbCDTCM (Janthinobacterium sp. HH01; E200Q) (protein)
chain: DHRLDDITARGVLRVGTTGDYKPFSSRAGNDFVGLDIELAADLARTLGVPVQIVPTSWPTLMKDFGDGKFDIALGGVSITPERQKQGLFSVSYLRDGKTPITRCENSARFQTLAQIDQPGVRLVVNPGGTNERFARSQAPNAQLTVYPDNVTIFDQIVTGAADLMITDAIQTRLQQRLRPQLCAVHPDTPFDFAEKAILLPRDVAFKAVVDKWLQQRIASGAVQRSVDRWLDFPWGLEPLRLAIDQRLLLAQAVARAKWNVQAPIEDLGREAQVIQAAVKEGAALGLPKVWIETVFRAQIEASKTVQRELFAQWSAQQAGKFDDAPDLAKTIRPELDRLTTQLLRSMASNQTVLNDEARKADVARAMRALEARALSPQAATQALAPFF
notes: as for B3
B5: in data set [8] (CDT-site knock-out), the Km amounted to 2.4 ± 1.3 µM, the kcat stood at 15.6 ± 0.4 s⁻¹ and the kcat/Km worked out at 7.9e+06 ± 4.5e+06 M⁻¹ s⁻¹.
